Entries after “also recorded” stand apart in the source; their conditions may differ.
Tests used:
[1] = Storage stability by ENO1 Human Activity Assay Kit (PK/LDH, NADH consumption); assay type: physicochemical; conditions: 500 ng Eno1; for activity at end of study (Week 10), −20° C.: kept at −20° C.; for activity retained at end of study (Week 10), −80° C.: kept at −80° C.; for Eno1 activity after storage, week 3, 4° C., 22° C., and 37° C.: stored at 4° C.; for Eno1 activity after storage, week 3, 4° C., 22° C., and 37° C. / Eno1 activity after storage, week 3, −80° C. and −20° C.: by week 3; for Eno1 activity after storage, week 3, −80° C. and −20° C.: stored at −80° C. and −20° C.; for Eno1 activity after storage, first week: stored at −80° C., −20° C., 4° C.; for Eno1 activity after storage, week 3, 4° C., 22° C., and 37° C. / Eno1 activity after storage, first week: 22° C., and 37° C.
Procedure: The stability of the Eno1-dendrimer-SMTP complex was evaluated at different temperatures, and stability was determined over a 3-4 month time period by measuring Eno1 activity using a commercially available Eno1 assay. The selected conjugates were also evaluated using biophysical techniques, including Dynamic Light Scattering (DLS) and UV-Vis spectroscopy to confirm complexation between the dendrimer-peptide conjugate and Eno1.
The stability of the Enolase-I/G5-dendrimer/SMTP conjugates was measured by using the ENO1 Human Activity Assay Kit (ABCAM, Cambridge, Mass.; Catalogue No. ab117994). Briefly, the sample was added to a microplate containing a monoclonal mouse antibody specific to Eno1. The microplate was incubated at room temperature for 2 hours, and Eno1 was immunocaptured within the wells of the microplate. The wells of the microplate were washed to remove all other enzymes. Eno1 activity was determined by following the consumption of NADH in an assay buffer that included pyruvate kinase (PK), lactate dehydrogenase (LDH) and the required substrates 2-phospho-D-glycerate (2PG) and NADH. Eno1 converts 2PG to phosphoenolpyruvate, which is converted to pyruvate by PK. Pyruvate is converted to lactate by LDH, and this reaction requires NADH. The consumption of NADH was monitored as decrease of absorbance at 340 nm.
The activity of Enolase-I/G5-dendrimer/SMTP conjugates that were stored at different temperatures at different time points was measured using the assay described above. A concentration of 500 ng of Eno1 was selected for testing because this concentration falls in the middle of the dynamic range of the assay kit. Two different sets of solutions were prepared. One set (control) contained Eno1 alone (i.e. unconjugated Eno1) and the other set contained Eno1/G5-dendrimer/SMTP mixtures. These mixtures were then kept at −80° C., −20° C., 4° C., 22° C., and 37° C. […] At the end of the study (Week 10), The Eno1/G5-dendrimer/SMTP solution that was kept at −80° C. retained about 90% of its activity whereas Eno1 alone was only 35% active. On the other hand, Eno1/G5-dendrimer/SMTP solution that was kept at −20° C. was about 24% active, whereas Eno1 alone stored at −20° C. was not active.

[2] = Tissue distribution of detectably labeled Eno1 PAMAM dendrimer complexes in mice (LI-COR imaging); assay type: in vivo
Procedure: A detectably labeled PAMAM dendrimer complex containing Eno1 was prepared using the method provided in the prior example and analyzed for tissue distribution in mice after subcutaneous injection. Specifically, for 72 hours prior to injection mice were fed alfalfa free food to limit background fluorescence. Mice were injected with 3 μg ENO1/mouse subcutaneously 150 μl total (75 μl left laterally, 75 μl right laterally). The molar ratio of dendrimer to Eno1 in the complex was 5:1. One, 4, and 24 hours post injection animals were sacrificed, skinned, and organs removed in preparation for LI-COR imaging.
A follow-up study was performed using the skeletal muscle targeted Eno1-PAMAM dendrimer complex containing the SMTP “ASSLNIA”. A detectably labeled PAMAM dendrimer complex containing Eno1 and SMTP ((Enolase-Vivo Tag680xl)-(G5-SMTP)) was prepared using the method provided in the prior example. The molar ratio of dendrimer to SMTP in the complex was 1:1. The experiments were performed essentially as described above. The skeletal muscle targeted Eno1-PAMAM dendrimer complex was administered at a dose of 50 μg/kg body weight. These images in FIG. 6B were taken after 1 hr of injection. Organs, other than the heart, were retained in the body.

db/db mice = test: Body weight / weight gain in db/db mice treated with rosiglitazone and muscle targeted Eno1/dendrimer complex; assay type: in vivo; conditions: Eno1 400 μg/kg/day subcutaneous added to rosiglitazone 20 mg/kg/day
Procedure: A muscle targeted Eno1/dendrimer complex was generated to analyze its efficacy in reducing weight gain. The dendrimer complex comprised human Eno1, transcript variant 1 protein (SEQ ID NO: 2) which was non-covalently linked to a G5-PAMAM dendrimer/muscle targeting peptide (MTP) (ASSLNIA; SEQ ID NO: 7) conjugate. Stock solutions of Eno1 were prepared in buffer and the protein solution was mixed with the G5 dendrimer-MTP conjugate.
Lean mice and male obese and diabetic db/db mice (male BKS.Cg-m+/+Lepr^db/J) mice were obtained from a commercial vendor. All mice were housed 2-3 per cage at 22° C. on a 12:12 hr day-night cycle and were acclimated for 3 weeks at animal facility on a standard chow diet. At 8 weeks of age, 200 μg/kg body weight Eno1 was administered twice daily (at 9:00 a.m. and 5:00 p.m., 400 μg/kg daily dose) by subcutaneous injection, and 20 mg/kg body weight rosiglitazone was administered once daily by gavage at 9:00 a.m. Lean mice and db/db mice also received subcutaneous injections of saline as a control. The treatment groups were as follows: • 1. lean mice with saline injection (control) • 2. db/db mice with saline injection (control) • 3. db/db mice with rosiglitazone (20 mg/kg, once daily) • 4. db/db mice with rosiglitazone (20 mg/kg, once daily)+Eno1 (200 μg/kg, twice daily) […]

| Substance | activity at end of study (Week 10), −20° C. [1] | activity retained at end of study (Week 10), −80° C. [1] | Eno1 activity after storage, week 3, 4° C., 22° C., and 37° C. [1] | Eno1 activity after storage, week 3, −80° C. and −20° C. [1] | Eno1 activity after storage, first week [1] | also measured |
| --- | --- | --- | --- | --- | --- | --- |
| Eno1 alone: Eno1 alone (i.e. unconjugated Eno1), control in the stability study | not active | 35% | no activity | significant stability | active | – |
| Eno1-PAMAM dendrimer: detectably labeled PAMAM dendrimer complex containing Eno1, molar ratio of dendrimer to Eno1 5:1, no targeting peptide | – | – | – | – | – | tissue distribution, 1 hour post injection ([2]; subcutaneous, 3 μg ENO1/mouse, dendrimer to Eno1 5:1, 1 hour (FIG. 6A)): general systemic distribution; tissue distribution, 4 hours post injection ([2]; subcutaneous, 3 μg ENO1/mouse, dendrimer to Eno1 5:1, 4 hours (FIG. 6A)): significant accumulation of the Eno1-PAMAM dendrimer was observed in liver, kidney, and subcutaneous fat, as well as in the upper torso; tissue distribution, 24 hours post injection ([2]; subcutaneous, 3 μg ENO1/mouse, dendrimer to Eno1 5:1, 24 hours (FIG. 6A)): substantially cleared and observed substantially in the liver and kidney |
| Eno1/G5-dendrimer/SMTP: Eno1 complexed with Generation 5 PAMAM dendrimers decorated with Skeletal Muscle Targeting Peptides (SMTPs) | about 24% | about 90% | no activity | significant stability | active; also recorded: slightly higher activity than Eno1 alone | – |
| Eno1: In Example 1: human Eno1 transcript variant 1 protein (SEQ ID NO: 2) non-covalently linked to G5-PAMAM dendrimer/muscle targeting peptide (ASSLNIA) conjugate | – | – | – | – | – | effect on rosiglitazone-induced weight gain (db/db mice): attenuates rosiglitazone-induced weight gain; also recorded: attenuates rosiglitazone induced weight gain; also recorded: attenuated |
| muscle-targeted Eno1 dendrimer complex: detectably labeled PAMAM dendrimer complex containing Eno1 and SMTP ASSLNIA, dendrimer to SMTP 1:1 | – | – | – | – | – | tissue distribution of muscle targeted complex, 1 hr after injection ([2]; 50 μg/kg body weight, dendrimer to SMTP 1:1, 1 hr (FIG. 6B)): targeted to skeletal muscle, not heart |

Reference: patent US20160375113A1, “COMPOSITIONS COMPRISING ENO1 AND THEIR USE IN METHODS OF TREATING OBESITY OR OVERWEIGHT AND REDUCING WEIGHT GAIN” (Berg LLC, priority 2015, published 2016)
